System: MS2 coat protein
Assay: apparent KD of MS2 coat protein; designed switch direction (-1 OFF switch, 1 ON switch): -1; higher = weaker reporter binding
How it was run: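 The buffer was Tris-HCl pH 7.5 with KCl, MgCl2, BSA, DTT, tRNA and Tween-20. In it, SNAP-549-labelled MS2 coat protein was titrated in doubling steps from 0.7 or 1.5 nM to 3 µM over chip-bound RNA switches transcribed by stalled E. coli RNA polymerase on Illumina chips. Apparent KD is the per-design median over clusters of curve fits to normalised fluorescence.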

[1] = input ligand: microRNA oligo, concentration not stated
[2] = Eterna round: R95, input ligand: FMN 200 uM
[3] = Eterna round: R95, input ligand: microRNA oligo, concentration not stated
[4] = Eterna round: R95, input ligand: none

Sequence | apparent KD of MS2 coat protein (input ligand: FMN 200 uM) | apparent KD of MS2 coat protein (input ligand: none) | apparent KD of MS2 coat protein [3] | other results
UAGCAUUGCCUUUGGUAGUGCCUUACAUGAGGAUCACCCAUGUAGGAUAUGGUAGGCUUUGCUUACCAGAAGGACAUGGUAAUU [JL ENG3 1.06] (Eterna round: R96, puzzle: Exclusion NG 3) |  |  |  | apparent KD of MS2 coat protein [1]: 54.1 nM
UUAGAGUCAGGAUAUGCAGCUCCCUGUAGGGCCGAACAGCAGUAGAAGGGACAUGAGGAUCACCCAUGUGAUAG [Eternabot (L2) Solution 52] (Eterna round: R97, puzzle: Exclusion 4) | 86.1 nM | 81.5 nM |  | 
UAAAGGCUAGGAUAUCGCACCUUCGACAUGAGGAUCACCCAUGUAUGUCGAUGGUAAAAUCGAGAAGGAGCGAGAA [Artiedqu] (puzzle: Exclusion 5) |  |  | 21.7 nM | apparent KD of MS2 coat protein [2]: 31.7 nM; apparent KD of MS2 coat protein [4]: 17.8 nM
AAUUCACAUGAGGAUCACCCAUGUCAGGAUAUGCUGACGCGGGUUUCGGUGCGUGUUGGCAGAAGGGACAGCUA (puzzle: Exclusion 1) |  |  | 144 nM | 
AAAAGGCAAGCAUGAUCCCACAUGAGGAUCACCCAUGUGUUCGUCUUAUAGGCUGCUGAGGCUUUUGCCUCGGUGGC [LRO Sensor-off var1-05 loose mod of D91 from Mat747] (Eterna round: R97, puzzle: Sensor, turn-off variant 1) | 587 nM | 728 nM |  | 
GAAGAGACAGGAUAUACAUGAGGAUCACCCAUGUGAGGAUGUUGGAGGCGGAGGAGGUGUAGAAGGGUCAAAGA [JR_Exclu3_Sub020] (puzzle: Exclusion 3) |  |  | 26.7 nM | 
UAUAUAUAGUAAGGAUAUAUAUUUUUUUUUUAAAUAGAAGGUACAGACAUGAGGAUCACCCAUGUUAUAAUAUGGACAUGUGGA [JMF's Solution 3] (Eterna round: R96, puzzle: Exclusion NG 1) |  |  |  | apparent KD of MS2 coat protein [1]: 113 nM
CGGCGCCUAGGAUAUACUCUGAGAAUCAGUUGGGUCUCCGGACAUGAGGAUCACCCAUGUAGAAGGAGGAAGCU [EX2 C.11] (Eterna round: R97, puzzle: Exclusion 2) | 21.3 nM | 18.4 nM |  | 
UGCGAGUAAGGAUAUUCGCGACCGCCCACAAAGGCGGUCGAGAAGAAGGUACUUGAGGAUCACCCAAGUCCUAA [Anremaqu] (Eterna round: R97, puzzle: Exclusion 4) | 98.2 nM | 22 nM |  | 
UCGCUGCGAGGAUAUACGUUUGCGCGCUUUCGUUUGCGCGUACAUGAGGAUCACCCAUGUAGAAGGCGCGCCGC [Apr-15 SS2-8] (puzzle: Exclusion 2) |  |  | 13.2 nM | 
UGUUGUUACGCAGGAUAUUGCCAACAGGCAGUAGGAUAUCCGAAAGGAGAAGGACCGCCAACAGGCGAGAAGGGCGGGUUAACA [pwkr exNG2 2xF7 2xFMN.10] (Eterna round: R96, puzzle: Exclusion NG 2) | 370 nM | 16.3 nM |  | apparent KD of MS2 coat protein [1]: 227 nM
GACUGCCGAGGAUAUACAUGAGGAUCACCCAUGUGCUUCAGCAUUUUUUGAUGCAUGGGUAGAAGGCGGUAGUU [LRO-Excl3-15] (puzzle: Exclusion 3) |  |  | 341 nM | 
GAUACACAUGAGGAUCACCCAUGUGAGGAUAUGGAGGAGUUGCGAGUAAGCGAUGGAUCCAGAAGGCGCGUGAG [JR_Ex1_Sub082] (Eterna round: R97, puzzle: Exclusion 1) | 73.2 nM | 64.2 nM |  | 
CGUACUGAAGUGAGGAUAUUGUCUCGGAUACGAAACAAGAAGGCACAUGAGGAUCACCCAUGUUAACAGUACGA [Malc #30 mod 9] (puzzle: Brourd's mod of Exclusion 4) |  |  | 19.2 nM | apparent KD of MS2 coat protein [2]: 15.2 nM; apparent KD of MS2 coat protein [4]: 14.5 nM
CCCAUGUUAGGAUAUCGGCUCCGCCGUUCCACAUGGCGCUCCGAGAAGGAACAUGAGGAUCACCCAUGUAAAGA [Raza] (puzzle: Exclusion 4) |  |  | 34 nM | 
AUAAUGUAAGGAUAUCAGUCGUACAGCCUCGGCUGUACGACUGAGAAGGUACAUGAGGAUCACCCAUGUGAUCA [E4/8-A2] (Eterna round: R97, puzzle: Exclusion 4) | 98.4 nM | 1200 nM |  | 
CCUCUACAUGAGGAUCACCCAUGUGAGGAUAUCAGUGCAAAAGGCACGUAAUAAAUCGUGAGAAGGCACAUGGG [EX1 A.15] (Eterna round: R97, puzzle: Exclusion 1) | 24 nM | 112 nM |  | 
AUAUUACAUGAGGAUCACCCAUGUGAGGAUAUGGAGAGCGACCGCCCGGUCGCGUACACCAGAAGGCGCAGGCG [1st #59] (Eterna round: R97, puzzle: Exclusion 1) | 85.7 nM | 41.1 nM |  | 

Sequence | apparent KD of MS2 coat protein (input ligand: FMN 200 uM) | apparent KD of MS2 coat protein (input ligand: none) | apparent KD of MS2 coat protein [3] | other results
AGUGUGUGGCAGGAUAUGCUAUUGAUUGGUGAAGCAGAAGGGUCUACAUGAGGAUCACCCAUGUAAGCGGUUGA [Ex6 #28] (Eterna round: R97, puzzle: Exclusion 6) | 327 nM | 46.4 nM |  | 
ACCUCACUUGAGGAUCACCCAAGUCAGGAUAUACUCGUUUGCCGCACGACGCGGCAUUGUAGAAGGGACGGGUU [Arveatat] (Eterna round: R97, puzzle: Exclusion 1) | 35.1 nM | 17.9 nM |  | 
GGAAAGCAAGGAUAUACGAGGAGAAGGAGGAAAGUAAAAGGACAUGAGGAUCACCCAUGUAGAAGGUGCGAGAG [JR_Exclu2_Sub040] (puzzle: Exclusion 2) |  |  | 29.7 nM | apparent KD of MS2 coat protein [2]: 27.6 nM; apparent KD of MS2 coat protein [4]: 32.9 nM
UCGUGGAUCGAGGAUAUGCCACGGACAGACGCCGCAGAAGGCGAAACAUGAGGAUCACCCAUGUGUGCCAUCCU [Eternabot (L1) Solution 52] (Eterna round: R97, puzzle: Exclusion 6) | 58.5 nM | 56.5 nM |  | 
GGUGGACAUGAGGAUCACCCAUGUGAGGAUAUCGGCUGGUACGUGUUGGCUGGCAUCUCGAGAAGGCACAUAGU [Exclusion 1 V61] (puzzle: Exclusion 1) |  |  | 58.8 nM | 
UUCGGCGGAGGAUAUACAGUUUUUUGUUGAAUCGGCGGGAAACAUGAGGAUCACCCAUGUAGAAGGUUGUUGAA [-18.7, -16.7 kcal, A 27%] (Eterna round: R97, puzzle: Exclusion 2) | 63.3 nM | 78 nM |  | 
GCAGUAACAUGAGGAUCACCCAUGUGGAACUCGUGAAUAAGCGAGGAUAUCUCAAGAUAUCAAAGAGAGAAGGCGUACACUGCA [Qulege] (Eterna round: R96, puzzle: Exclusion NG 3) | 490 nM | 142 nM |  | apparent KD of MS2 coat protein [1]: 96.1 nM
AUGAGGUUAGGAUAUACAUGAGGAUCACCCAUGUUGGAGAAGGAAAUGUAAGUAGCGAGUAGAAGGAACGGAGC [JR_Exclu3_Sub059] (Eterna round: R96, puzzle: Exclusion 3) | 48.6 nM | 49 nM |  | apparent KD of MS2 coat protein [1]: 40.4 nM
CGGGUGAAUAGAGGAUAUAGUACAUGAGGAUCACCCAUGUAAUAAAUGAGAAUUUCGAAUGUAAUCUAGAAGGCUAGAAAACCC [Ostracism 99 - Jieux - Exclusion NG 2] (Eterna round: R96, puzzle: Exclusion NG 2) | 367 nM | 274 nM |  | apparent KD of MS2 coat protein [1]: 150 nM
UAUUAACAAGCAAGGUCCCACAUGAGGAUCACCCAUGUGCUCGUCUUAUAAGGUACUGUGACGAAAGUCACGGUACC [Sensor 3, v1 - 81] (puzzle: Sensor v3, turn-off variant 1) |  |  | 469 nM | apparent KD of MS2 coat protein [2]: 32.4 nM; apparent KD of MS2 coat protein [4]: 33.6 nM
CCAGCGUGUGUGAGGAUAUGCUGGUCCUUGGAUCAGCAGAAGGCACAUGAGGAUCACCCAUGUGAGGACGUUGG [JL bmx4 3.32] (puzzle: Brourd's mod of Exclusion 4) |  |  | 19.9 nM | 
AAACCUUGAGGAUAUACAUAACAACAAAGCCUCACGUGCCAACAUGAGGAUCACCCAUGUAGAAGGCAGGCCAA [Mod R3 Insanara 11 - Jieux - Exclusion 2] (Eterna round: R97, puzzle: Exclusion 2) | 15.6 nM | 12.7 nM |  | 
CCCAGUUAUCUAGGAUAUUGUACAUGAGGAUCACCCAUGUAAUAAAUGAGGAUUUCGGGUGUCUACAAGAAGGAGAGGAUAGGC [Ostracism 16 - Jieux - Exclusion NG 2] (Eterna round: R96, puzzle: Exclusion NG 2) |  |  |  | apparent KD of MS2 coat protein [1]: 20.4 nM
UAACAUCUGAUUCUUGAGAUACAUGAGGAUCACCCAUGUUCACAGGAUAUUGAUUUUAAGAAAAGCAAGAAGGGUGAAUCAUUU [JR_ExcNG3_Sub042] (Eterna round: R96, puzzle: Exclusion NG 3) | 34.1 nM | 20.7 nM |  | apparent KD of MS2 coat protein [1]: 19 nM
CCAAGAAUAGGAUAUACACCAUGUCAGCUUCUAUACAUCGCACAUGAGGAUCACCCAUGUAGAAGGGUUCUCUC [Exclusion-2-#4] (Eterna round: R97, puzzle: Exclusion 2) | 369 nM | 282 nM |  | 
AAUGUGUAAGGAUAUCCGAAAAGCGAGCGAAAGCGAGCGAAGGAGAAGGUACAUGAGGAUCACCCAUGUAAGGG [AK-MS2ROC-r4-exclusion4-11.6] (Eterna round: R97, puzzle: Exclusion 4) | 71.5 nM | 530 nM |  | 
CGGAGACAUGAGGAUCACCCAUGUGAGGAUAUGGCGUGCGCUACUAAAGGUGGUUGCUCCAGAAGGCGCGGUGU [Eternabot (L1) Solution 3] (Eterna round: R97, puzzle: Exclusion 1) | 74.5 nM | 65.2 nM |  | 
CUAACGAAAGGAUAUAUGGCAUGAGACAUGAGGAUCACCCAUGUGAACCACCUACAGUACAUAGAAGGUUCGCUAG [Eternabot (Original) Solution 18] (Eterna round: R97, puzzle: Exclusion 5) | 65.9 nM | 94.6 nM |  | 
